Assay results taken from patent publication US20210230599, “STEM-LOOP COMPOSITIONS AND METHODS FOR INHIBITING INTERLEUKIN-8” (VITRISA THERAPEUTICS, INC., published 2021).

Experiments:
[1] = molecular target: T1, Interleukin-8 (IL8, CXCL8), C-terminal His-tagged (Homo sapiens, UniProt P10145 SEQ:1-72); experiment: TR-FRET; details: tags: C-terminal 6xHis (Sino Biological); label: Alexa Fluor 647
Method: (§1) Aptamers were synthesized and labeled with ALEXA FLUOR® 647, and binding to IL8 was quantified by Time-Resolved Fluorescence Resonance Energy Transfer (TR-FRET). Briefly, 2-fold dilutions of thermally equilibrated aptamers were made in TR-FRET Buffer (50 mM MOPS, pH 7.4, 125 mM NaCl, 5 mM KCl, 50 μM CHAPS, 0.1 mg/mL BSA, 1 mM CaCl₂ and 1 mM MgCl₂). […] of aptamer or control solution was added to 10 μL of 15 nM C-His-tagged-IL8 (Sino Biological) in a black wall half-area plate (Corning). In the same plate, 10 μl of aptamer solution was added to 10 μl of TR-FRET buffer alone to use for background subtraction. 10 μl of 15 nM anti-His-Eu (Perkin Elmer) was added to each well, the plate was covered with a plate seal and subsequently incubated in the dark for 1 hour at room temperature. The plate was read on a Biotek CYTATION™ 5 plate reader. Samples were excited at 330 nm and fluorescent values were collected at 665 nm. […] Apparent Kd values obtained for the fits are calculated as the concentration of half-maximal binding and shown in Table 10, and fit curves as FIG. 6. […] It is also possible that differences may arise due to TR-FRET being a homogenous solution binding assay, while bead binding has immobilized ligand and is non-homogenous, so bound aptamers may dissociate during analysis resulting in higher calculated Kd values.

[2] = molecular target: T1, Interleukin-8 (IL8, CXCL8), C-terminal …; experiment: TR-FRET; bead flow 13 nM; details: tags: C-terminal 6xHis (Sino Biological); label: Alexa Fluor 647
Method: as §1

[3] = molecular target: T1, Interleukin-8 (IL8, CXCL8), C-terminal …; experiment: cell_activity; neutrophil migration, 3 nM IL8, protein limited; details: tags: C-terminal His (Sino Biological); stem-loop
Method: (§2) Freshly isolated primary human neutrophil migration stimulated by IL8 was measured using a transwell assay. Neutrophils were isolated from fresh whole human blood using Polymorphprep™ (AXIS Shield) and then were re-suspended in assay buffer (RPMI+0.1% Human Serum Albumin) at 10\hat{ }6 cells/mL. 5 μm Transwell inserts (Corning) were activated with […] in the plate and 100 µL of assay buffer in the transwell at 37° C. 3 nM IL8 and aptamers or controls were incubated for 1 hour, then 200 µL of the aptamer/IL8 mix was added to each well and 100 μL of neutrophils was added to the transwell. Aptamer inhibition was tested at two concentrations: 10 nM and 100 nM. After 45 minutes at 37° C., 100 μL from each well was transferred to a white 96-well plate with 50 μL of lysis buffer. The number of cells that migrated from the transwell to the well was quantified by ATPLITE® Luminescence Assay System (Perkin Elmer). In Table 13, values are normalized to 3 nM IL8 treatment and average between replicates with standard deviation. 3 nM IL8 activity inhibited by at least 50% at 10 nM aptamer concentration is consistent with aptamers having IC₅₀ values of 10 nM or better, as observed for Aptamer 3 and Aptamer 8.
The neutrophil migration assays described in Examples 6 and 18 were used to confirm the activity of Aptamers 8, 212, and 248. Assays were performed as described in those examples.

[4] = molecular target: T1, Interleukin-8 (IL8, CXCL8), C-terminal …; experiment: TR-FRET; bead flow 21 nM; details: tags: C-terminal 6xHis (Sino Biological); label: Alexa Fluor 647
Method: as §1

[5] = molecular target: T1, Interleukin-8 (IL8, CXCL8), C-terminal …; experiment: competition; competition TR-FRET; S2 shortened; details: tags: C-terminal 6xHis (Sino Biological)
Method: (§3) To better understand the sequence requirements and to confirm the stem structures of members of the Aptamer 3 family as determined from sequence covariation analysis from both the primary and secondary (degenerate) selections, a series of variants which included mutations and deletions to the predicted stems were synthesized and screened (Table 24). Activity of each of these variants were tested using a time resolved competition TR-FRET assay in which the labeled parent Aptamer 3 was competed with increasing concentrations of unlabeled variants for binding to IL8 (FIG. 14). Briefly, 2-fold dilutions of thermally equilibrated aptamers were made in TR-FRET Buffer (50 mM MOPS, pH 7.4, 125 mM NaCl, 5 mM KCl, 50 μM CHAPS, 0.1 mg/mL BSA, 1 mM CaCl₂, and 1 mM MgCl₂). 5 μL of aptamer or control solution was added to 5 μl mix of 10 nM C-terminal His-tagged-IL8, 60 nM ALEXA FLUOR® 647-labeled Aptamer, and 5 nM anti-His-Eu (Perkin Elmer) in a black wall low volume 384 well plate (Greiner). For control, 5 μl of 1000-fold excess of unlabeled parent aptamer or 5 μl TR-FRET buffer alone was added to the mix of ALEXA FLUOR® 647-labeled aptamer, His-IL8, and anti-His-Eu. The plate was covered with a plate seal and subsequently incubated in the dark for 1 hour at room temperature. The plate was read on a Biotek CYTATION™ 5 plate reader. […]

[6] = molecular target: T1, Interleukin-8 (IL8, CXCL8), C-terminal …; experiment: TR-FRET; bead flow 11 nM; details: tags: C-terminal 6xHis (Sino Biological); label: Alexa Fluor 647
Method: as §1

[7] = molecular target: T1, Interleukin-8 (IL8, CXCL8), C-terminal …; experiment: inhibition; inhibition of IL8 binding to CXCR1 cells, protein limited; neutrophil migration 3 nM; details: tags: C-terminal His (Sino Biological); stem-loop
Method: CXCR1 overexpressing cells were used to confirm that aptamers could block IL8 binding to its cognate receptor, CXCR1, in a functional setting. Briefly, CXCR1-overexpressing cells were plated in a 96 well plate and seeded overnight. Serially diluted aptamers and 5 nM IL8 were mixed in cell culture media and applied to cells for 2 hours at 37° C. Media was aspirated, and cells were washed 3× with PBS for 5 minutes. Cells were lysed in Ultra HiBlock Buffer (Perkin Elmer) with gentle agitation. IL8 levels were determined using Ultra TR-FRET (Perkin Elmer).

[8] = molecular target: T1, Interleukin-8 (IL8, CXCL8), C-terminal …; experiment: cell_activity; neutrophil migration, 3 nM IL8, protein limited; details: tags: C-terminal His (Sino Biological); stem-loop; remark: listed apart in the source
Method: as §2
The neutrophil migration assay described in Example 6 was used to further characterize optimized variants of Aptamer 3. […]

[9] = molecular target: T1, Interleukin-8 (IL8, CXCL8), C-terminal …; experiment: competition; competition TR-FRET; U20C; details: tags: C-terminal 6xHis (Sino Biological)
[10] = molecular target: T1, Interleukin-8 (IL8, CXCL8), C-terminal …; experiment: TR-FRET; bead flow 10 nM; details: tags: C-terminal 6xHis (Sino Biological); label: Alexa Fluor 647
Method: as §1

[11] = molecular target: T1, Interleukin-8 (IL8, CXCL8), C-terminal …; experiment: competition; competition TR-FRET; details: tags: C-terminal His (Sino Biological); stem-loop
[12] = molecular target: T1, Interleukin-8 (IL8, CXCL8), C-terminal …; experiment: competition; competition TR-FRET; details: tags: C-terminal 6xHis (Sino Biological)
Method: as §3

[13] = molecular target: T1, Interleukin-8 (IL8, CXCL8), C-terminal …; experiment: competition; competition TR-FRET; U20A; details: tags: C-terminal 6xHis (Sino Biological)
Method: as §3

[14] = molecular target: T1, Interleukin-8 (IL8, CXCL8), C-terminal …; experiment: TR-FRET; bead flow 19 nM; details: tags: C-terminal 6xHis (Sino Biological); label: Alexa Fluor 647
Method: as §1

## UGGAUGACAUUCGGGGGCACCAAUCAUCGUCUGCU (ssRNA, 2'-F G, 2'-OMe A/C/U, 5' C6NH2, 3' idT) [Aptamer 18]
[1]
  Kd: 13 nM

## UGCGGCCUCCGUUGACUGUUGUAAUGCCGGGACAGU (ssRNA, 2'-F G, 2'-OMe A/C/U, 5' C6NH2, 3' idT) [Aptamer 14]
[2]
  Kd: 6 nM

## UUAGCCCUGCCAUUGGGGCAUACUUUGGCCGCACU (ssRNA, 2'-F G, 2'-OMe A/C/U, 5' C6NH2, 3' idT) [Aptamer 23]
[2]
  Kd: 12 nM

B1: Aptamer 248 (ssRNA)
RNA: GCGGUGGGAAAUGUGAGAUGGGUUGCCGC
modifications: 2'-F G except 2'-OMe G at X (XCXXU-GGGA-AAUGU-GAGAU-GGGUU-XCCXC); 2'-OMe A,C,U; 5' C6NH2; 3' idT
[3]
  IC50: 2 nM

## UCGCUUGUACCUCUGAGAUGUGAGACUAAUGUAGGU (ssRNA, 2'-F G, 2'-OMe A/C/U, 5' C6NH2, 3' idT) [Aptamer 13]
[4]
  Kd: 7 nM

## GCGACGUAGAUUACGGGUAGAGUGACGCGC (ssRNA, 2'-F G, 2'-OMe A/C/U, 5' C6NH2, 3' idT) [Aptamer 44]
[5]
  binding signal: > 10 fold worse than Aptamer 3

## GCGACGCAGAUUACGGGUAGAGUGGCGCGC (ssRNA, 2'-F G, 2'-OMe A/C/U, 5' C6NH2, 3' idT) [Aptamer 45]
[5]
  binding signal: > 10 fold worse than Aptamer 3

## UACGGUGGGAAAUGUGAGAUGGGUUGCCGUAUUUU (ssRNA, 2'-F G; 2'-OMe A,C,U; 5' C6NH2; 3' idT) [Aptamer 8]
[3]
  IC50: 2 nM

## UAGCGGCCGAAGUUAGCGUACGUUUGCCGGGUACGU (ssRNA, 2'-F G, 2'-OMe A/C/U, 5' C6NH2, 3' idT) [Aptamer 2]
[6]
  Kd: 9 nM

## UGAUGACGGUAGAUUAUGGGCAGUGUGACCGCAUCU (ssRNA, 2'-F G; 2'-OMe A,C,U; 5' C6NH2; 3' idT) [Aptamer 99]
[7]
  IC50: 4 nM

## UGAUGACGGUAGAUUUCGGGUAGUGUGACCGCAUCU (ssRNA, 2'-F G; 2'-OMe A,C,U; 5' C6NH2; 3' idT) [Aptamer 94]
[8]
  IC50: 3 nM

## CGGUGGGAAAUGUGAGACGGGUUGCCG (ssRNA, 2'-F G, 2'-OMe A/C/U, 5' C6NH2, 3' idT) [Aptamer 54]
[9]
  binding result: binds

## UUAAGCGCUGAGACGAGAGAUUAAUGCCGCUUGCCU (ssRNA, 2'-F G, 2'-OMe A/C/U, 5' C6NH2, 3' idT) [Aptamer 21]
[10]
  Kd: 7 nM

## UCAGUUGCGGCCCCUGAUACCGAUUUGCCGCCCGGU (ssRNA, 2'-F G, 2'-OMe A/C/U, 5' C6NH2, 3' idT) [Aptamer 15]
[1]
  Kd: 22 nM

B2: Aptamer 272 (ssRNA)
RNA: GCGACGGUAGAUUAUGGGCAGUGUGACCGCGC
modifications: 2'-F G except 2'-OMe G at X (XCX-A-CXXU-AX-AU-UAUGGGCAXU-GU-X-ACCX-CXC); 2'-OMe A,C,U; 5' C6NH2; 3' idT
[11]
  binding signal: > 10 fold worse than Aptamer 147

B3: Aptamer 278 (ssRNA)
RNA: GCGACGGUAGAUUUCGGGUAGUGUGACCGCGC
modifications: 2'-F G except 2'-OMe G at X (XCX-A-CXXU-AX-AU-UUCGGGUAXU-GU-X-ACCX-CXC); 2'-OMe A,C,U; 5' C6NH2; 3' idT
[11]
  binding signal: > 10 fold worse than Aptamer 147

## GGCGACGGUAGAUUUUGGGUAGUGUGACCGCGCC (ssRNA, 2'-F G, 2'-OMe A/C/U, 5' C6NH2, 3' idT) [Aptamer 193]
[12]
  binding result: binds

## GGCGACGGUAGAUUUUGGGCAGUGUGACCGCGCC (ssRNA, 2'-F G, 2'-OMe A/C/U, 5' C6NH2, 3' idT) [Aptamer 197]
[12]
  binding result: binds

B4: Aptamer 269 (ssRNA)
RNA: GGCGACGGUAGAUUAUGGGCAGUGUGACCGCGCC
modifications: 2'-F G except 2'-OMe G at X (XXCX-A-CXXU-AX-AU-UAUGGGCAGU-GU-G-ACCX-CXCC); 2'-OMe A,C,U; 5' C6NH2; 3' idT
[7]
  IC50: 3 nM

## GGCGACGGUAGAUUUCGGGUAGUGUGACCGCGCC (ssRNA, 2'-F G; 2'-OMe A,C,U; 5' C6NH2; 3' idT) [Aptamer 143]
[8]
  IC50: 2 nM

## CGGUGGGAAAUGUGAGAAGGGUUGCCG (ssRNA, 2'-F G, 2'-OMe A/C/U, 5' C6NH2, 3' idT) [Aptamer 59]
[13]
  binding result: binds

## UUGCCCUUUGAUCGUACCGAGGCGGGGAAGUACGAU (ssRNA, 2'-F G, 2'-OMe A/C/U, 5' C6NH2, 3' idT) [Aptamer 24]
[14]
  Kd: 9 nM
